Measured values published in publication PMC6300356, “DNA translocation mechanism of an XPD family helicase”.

Biological target: T1, DinG (Escherichia coli, UniProt P27296 1-716)
T1 sequence: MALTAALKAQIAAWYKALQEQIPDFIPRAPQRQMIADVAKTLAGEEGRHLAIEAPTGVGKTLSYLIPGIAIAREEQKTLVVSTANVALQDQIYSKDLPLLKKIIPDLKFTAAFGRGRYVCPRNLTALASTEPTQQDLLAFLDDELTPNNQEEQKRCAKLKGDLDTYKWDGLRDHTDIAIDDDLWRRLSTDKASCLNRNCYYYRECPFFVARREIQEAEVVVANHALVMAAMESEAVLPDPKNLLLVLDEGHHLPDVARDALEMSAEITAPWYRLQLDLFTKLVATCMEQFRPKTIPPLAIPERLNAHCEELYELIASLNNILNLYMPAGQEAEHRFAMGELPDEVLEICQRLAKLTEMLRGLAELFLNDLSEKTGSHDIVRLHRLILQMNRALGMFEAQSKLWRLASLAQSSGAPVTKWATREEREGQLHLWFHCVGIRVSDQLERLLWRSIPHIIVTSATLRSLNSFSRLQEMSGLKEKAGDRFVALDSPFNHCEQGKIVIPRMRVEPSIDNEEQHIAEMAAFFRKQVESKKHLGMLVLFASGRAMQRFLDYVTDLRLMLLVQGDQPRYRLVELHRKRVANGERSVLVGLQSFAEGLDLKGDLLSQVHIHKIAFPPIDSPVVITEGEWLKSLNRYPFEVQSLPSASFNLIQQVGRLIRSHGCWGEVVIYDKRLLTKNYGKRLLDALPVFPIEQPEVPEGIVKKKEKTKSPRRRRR
Test: X-ray crystallography (2.5 A); binary complex, no nucleotide; MST: 25 mM Tris pH 8.0, 200 mM NaCl, 1 mM DTT, 5% glycerol, 25 C, 10 nM ssDNA
Conditions: protein: recombinant; tags: His6-MBP-TEV N-terminal, removed by TEV

B1: dT12 (12 base oligo-dT) (ssDNA)
DNA: TTTTTTTTTTTT
binding result: binds
